{"source": "patent US20180021429A1", "about": "“ANTICANCER AGENTS OR ANTIMETASTATIC AGENTS USING FSTL1 AND COMBINATION DRUG THEREOF” (PHARMA FOODS INTERNATIONAL CO., LTD., priority 2015, published 2018)", "molecules": {"B1": {"name": "#6-55: chicken-mouse chimeric anti-FSTL1 antibody clone; variable regions SEQ ID NO: 783 (light), 785 (heavy) (antibody, V domains shown)", "VH": "AVTLDESGGGLQTPGGALSLVCKGSGFTFTSVTMQWVRQAPGKGLEWVASVCSGSSTYYAPAVKGRATISRDNGQSTVRLQLSNLRPEDTGTYYCAKIAGRARWSCTSAAYNIDAWGHGTEVIVSS", "VL": "ASTQPSSVSAIPGETVKITCSGGGNNYGWYQQRSPGSAPVTVIYYNDNRPSNIPSRFSGSTSGSTSTLTITGVQADDEAIYYCGSWDSNTDSGIFGAGTTLTVL", "modifications": "mouse constant regions"}, "B2": {"name": "#7-34: chicken-mouse chimeric anti-FSTL1 antibody clone; variable regions SEQ ID NO: 787 (light), 789 (heavy) (antibody, V domains shown)", "VH": "AVTLDESGGGLQTPGGGLSLVCKASGFTFSSVTMQWVRQAPGKGLEWVASICSGSSTYYGPAVKGRATISRDNGQNTVRLQLNNLRAEDTATYYCAKIVGRGRWSCTSAAYNIDAWGHGTEVIVSS", "VL": "B1 VL with I11N, R33K, D47N, D76E, I80V, W86Y, D87E, S88G, N89S", "modifications": "mouse constant regions"}, "B3": {"name": "#8-1: chicken-mouse chimeric anti-FSTL1 antibody clone; variable regions SEQ ID NO: 791 (light), 793 (heavy) (antibody, V domains shown)", "VH": "AVTLDESGGGLQTPGGALSLVCKGSGFTFSSFNMFWVRQAPGKGLEWVAGIGKDGVPKYGAAVDGRATISKDNGQSTMRLQLNNLRAEDTGTYFCAKAAGGCSYDWCGIYAGDIDTWGHGTEVIVSS", "VL": "ASTQPSSVSANPGEAVKITCSGGSGSYYGWYQQKSPGSAPVTVIYNNNQRPSDIPSRFSGSKSGSTATLTITGVQAEDEAVYFCGGYDSSSGHGGIFGAGTTLTVL", "modifications": "mouse constant regions"}}, "key": {"human FSTL1 [1]": {"target": "T1, human FSTL1 (Homo sapiens, UniProt Q12841)", "T1 construct": "AAA linker + 10xHis (C); made in house; host or cells: Expi293 (transient expression; purified from culture supernatant on HisPur Cobalt Resin)", "T1 sequence (Q12841 with tags, fused parts or gaps)": "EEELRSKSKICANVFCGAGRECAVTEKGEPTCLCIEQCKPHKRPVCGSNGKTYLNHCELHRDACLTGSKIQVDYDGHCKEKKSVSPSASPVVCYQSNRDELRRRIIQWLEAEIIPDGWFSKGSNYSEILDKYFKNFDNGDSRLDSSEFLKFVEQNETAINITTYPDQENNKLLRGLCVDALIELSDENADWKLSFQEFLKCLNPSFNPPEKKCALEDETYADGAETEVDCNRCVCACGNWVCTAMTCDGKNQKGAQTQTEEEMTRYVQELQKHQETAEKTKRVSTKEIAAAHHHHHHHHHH", "assay": "ELISA binding activity of purified antibody against human FSTL1 (Example 2)", "conditions": "FIG. 1B/31B", "protocol": "(§1) The reactivity of the obtained antibody clones described above with FSTL1 was evaluated by ELISA under the following conditions.\n(Table 2 ELISA conditions for binding activity evaluation of purified antibody) Antibodies used: anti-dinitrophenyl (DNP) antibody (negative control), #5-2, #5-3, #5-8, #5-10, #5-43, #6-55, and #7-34\nFIGS. 2 and 3 show results of evaluating binding activity under the condition of Table 3 as to clones differing in screening and antibody purification timings.\n(§2) Antibodies used: anti-dinitrophenyl (DNP) antibody (negative control), #5-2, #5-3, #5-8, #5-10, #5-43, #6-55, and #7-34\nFIGS. 32 and 33 show results of evaluating binding activity under the condition of Table 3 as to clones differing in screening and antibody purification timings."}, "[2]": {"test_system": "mouse melanoma cells (B16-F10) forced to express Snail", "assay": "In vivo, intraperitoneal administration, Snail-positive B16-F10 bone metastasis model (Example 18)", "design": "species or system C57BL/6N mice", "conditions": "intraperitoneal 10 mg/kg on days 5 and 10; day 14", "source_text": "1. Experiment Group (n=5) • 1. No treatment (0.9% NaCi as a sham) • 2. Control IgG (anti-DNP) • 3. Anti-FSTL1 Clone #6-55 • 4. Anti-FSTL1 Clone #7-34 • 5. Anti-FSTL1 Clone #8-1 […]\n• Effects on the growth of subcutaneous tumor (calculation of tumor volume by tumor size measurement): measured 7, 11, and 14 days after tumor implantation (FIG. 12B) • Effects on bone metastasis (GFP-positive tumor cells in bone marrow or the spleen) (FIGS. 12A and 12C) • Effects on MSC expansion (CD45-negative cells in bone marrow or the spleen) (FIGS. 12A and 12C) • Effects on weight loss (FIG. 12A) • Effects on the expansion of immunosuppressive Treg cells (CD4-positive and Foxp3-positive cells in the spleen) (FIG. 12C) • Other immunosuppressive properties (FIG. 12C)\nIn Example 17, the antibody was administered into tumor according to the purpose of “inhibiting metastasis from a primary focus to bone” as previously conducted by the present inventors. […] Specifically, antitumor effects and immunosuppression-mitigating effects were comparatively analyzed by the intraperitoneal administration (systemic administration) of the anti-FSTL1 antibody using bone metastasis models in which mouse melanoma cells (B16-F10) forced to express Snail were subcutaneously and intravenously transplanted in C57BL/6N mice. […]"}, "human FSTL1 [3]": {"target": "T1, human FSTL1", "assay": "ELISA binding activity of purified antibody against human FSTL1", "conditions": "FIG. 95B", "protocol": "as §1\n(Table 2 ELISA Conditions for Binding Activity Evaluation of Purified Antibody)\nas §2\nFIGS. 96 and 97 show results of evaluating binding activity under the condition of Table 3 as to clones differing in screening and antibody purification timings.\n(Table 3 ELISA Conditions for Binding Activity Evaluation of Purified Antibody)"}, "[4]": {"test_system": "human peripheral blood cells", "assay": "Treg induction inhibition using human peripheral blood cells stimulated with FSTL1 (Example 25)", "assay_type": "cell-based", "conditions": "FSTL1 5 ng/ml, antibody 5 μg/mL, 3 days; FIG. 113", "protocol": "Human peripheral blood cells (1×10^6 cells) were stimulated using FSTL1 (5 ng/ml), supplemented with the antibody (5 μg/mL), and cultured for 3 days. The percentage of a Foxp3^+CTLA4^+ cell fraction (Exp. 1) or a CD4^+Foxp3^+CTLA4^+ cell fraction (Exp. 2) in CD4^+ T cells was analyzed as Treg cells by flow cytometry. The flow cytometry conditions are as follows.\nBlood was collected from a healthy person by the addition of a 1/10 amount of 4% sodium citrate, then layered on Ficoll (specific gravity: 1.090), and centrifuged (1500 rpm, 20 min, room temperature), and a cell fraction present in an intermediate layer was used as “PBMCs”. The antibody (5 μg/mL) was added to a system in which these PBMCs (1×10^6 cells) were cultured for 3 days under stimulation with FSTL1 (5 ng/ml) in a 24-well plate. PBMCs recovered from the culture system were incubated at 4° C. for 1 hour using an anti-CD4 antibody (BD Pharmingen/Becton, Dickinson and Company), an anti-CD25 antibody (BD Pharmingen/Becton, Dickinson and Company), and an anti-FoxP3 antibody (eBioscience). Then, the percentage of a Foxp3+CTLA4+ cell fraction (Exp. 1) or a CD4^+Foxp3^+CTLA4^+ cell fraction (Exp. 2) in CD4^+ T cells contained therein was analyzed as Treg cells using a flow cytometer FACScan (Becton, Dickinson and Company). […]"}}, "note": "Positions count from the first letter of the chain named.", "data": [{"molecule": "B1", "values": [{"measurement": "binding activity against human FSTL1", "setting": "human FSTL1 [1]", "result": "specific and equivalently strong binding activity"}, {"measurement": "anti-weight loss effect", "setting": "[2]", "result": "an anti-weight loss effect (right graph of FIG. 12A) was confirmed"}, {"measurement": "binding activity against human FSTL1", "setting": "human FSTL1 [3]", "result": "specific and equivalently strong binding activity"}, {"measurement": "Treg induction caused by FSTL1 (Foxp3+CTLA4+ fraction in CD4+ T cells)", "setting": "[4]", "result": "significantly suppressed"}]}, {"molecule": "B2", "values": [{"measurement": "binding activity against human FSTL1", "setting": "human FSTL1 [1]", "result": "specific and equivalently strong binding activity"}]}, {"molecule": "B3", "values": [{"measurement": "anti-weight loss effect", "setting": "[2]", "result": "an anti-weight loss effect (right graph of FIG. 12A) was confirmed"}]}]}
